Measured values published in article PMC7988105, “Canonical versus non-canonical transsynaptic signaling of neuroligin 3 tunes development of sociality in mice” (Nature Communications, 2021).

B1: mouse NLGN3 ECD (residues 35–684) with C-terminal His6 tag (domain or fragment, UniProt Q8BYM5 35-684, looked up)
chain: QAPAPTVNTHFGKLRGARVPLPSEILGPVDQYLGVPYAAPPIGEKRFLPPEPPPSWSGIRNATHFPPVCPQNIHTAVPEVMLPVWFTANLDIVATYIQEPNEDCLYLNVYVPTEDGSGAKKQGEDLADNDGDEDEDIRDSGAKPVMVYIHGGSYMEGTGNMIDGSVLASYGNVIVITLNYRVGVLGFLSTGDQAAKGNYGLLDQIQALRWVSENIAFFGGDPRRITVFGSGIGASCVSLLTLSHHSEGLFQRAIIQSGSALSSWAVNYQPVKYTSLLADKVGCNVLDTVDMVDCLRQKSAKELVEQDIQPARYHVAFGPVIDGDVIPDDPEILMEQGEFLNYDIMLGVNQGEGLKFVEGVVDPEDGVSGTDFDYSVSNFVDNLYGYPEGKDTLRETIKFMYTDWADRDNPETRRKTLVALFTDHQWVEPSVVTADLHARYGSPTYFYAFYHHCQSLMKPAWSDAAHGDEVPYVFGVPMVGPTDLFPCNFSKNDVMLSAVVMTYWTNFAKTGDPNKPVPQDTKFIHTKANRFEEVAWSKYNPRDQLYLHIGLKPRVRDHYRATKVAFWKHLVPHLYNLHDMFHYTSTTTKVPPPDTTHSSHITRRPNGKTWSTKRPAISPAYSNENAPGSWNGDQDAGPLLVENPRDYSTE
notes: mouse neuroligin 3, NLGN3A isoform, extracellular domain; Dimer by SEC-MALS and in both crystals; also called apo-NLGN3 ECD; wild-type NLGN3; not shown: His6, C-terminal, kept

What was measured:
[1] = biological target: the molecule itself; experiment: SEC-MALS; NLGN3 ECD wild-type at 1.5 g/L or R/C mutant at 1.1 g/L on ENrich SEC 650, 20 mM Tris-HCl pH 7.5, 150 mM NaCl
[2] = biological target: B1; experiment: ITC; NLGN3 ECD (20 µM) in the cell, NRXN1β (200 µM) injected; 20 mM Tris-HCl pH 8.0, 150 mM NaCl, 1 mM CaCl2, 25 °C; one-site model; details: both partners purified
[3] = biological target: T1, NLGN3 ECD MF/IS mutant (M614I F615S) with His6 tag (mouse, UniProt Q8BYM5 35-684, M614I | F615S); experiment: as above; details: both partners purified
T1 construct: mouse neuroligin 3, NLGN3A isoform, extracellular domain (gene for residues 1–684 expressed and secreted), mutated; also called NLGN3-MF/IS; not shown: His6, C-terminal, kept

Kd [2] [µM] | Kd [3] [µM] | Binder | stoichiometry N [1]
– | – | B1 | 2
1.8 | 2.3 | NRXN1β (lacking SS4) used for ITC (domain or fragment) not shown | –
